The experiment has as its target fluorescein-labelled divalent stargazin-derived peptide ligand. Nature of the experiment: fluorescence polarisation; direct titration: 50 nM fluorescein-labelled stargazin ligand (divalent or monovalent) against increasing concentrations of PDZ domains; apparent KD. For orientation: Polarisation of emitted light reports the rotation of a fluorescent probe.

The results in this text go back to paper PMC6778148.

As for “SAP97 tandem PDZ domains 1 and 2 (SAP97-12), from pET-NO (domain or fragment)”, the Kd was 199 nM.
